# Measurements from patent publication US20250064951A1, “DENDRITIC POLYELECTROLYTE ZWITTERIONS, JANUS-TYPE CONJUGATE COMPRISING SAME AND USES THEREOF” (ArtProBio Co., Ltd., priority 2023, published 2025).
# Ends that are not written are not given here.
# Experiments:
# HeLa cells = assay: Cytotoxicity, WST-8 assay in HeLa cells; type: cell-based; details: 0, 2, 4, 8, 16, 32, 64 and 128 μM, 4 hours
# Method: Since DPZ contains both polyelectrolytes and zwitterions in a single molecule, it is expected to have non-fouling property and low toxicity, while also having advantageous intracellular delivery efficiency due to its interaction with the cell membrane. Cytotoxicity was analyzed first. HeLa cells were subcultured in DMEM supplemented with 10% FBS (fetal bovine serum), dispensed into each well at 1×10^4 cells/well, and cultured at 37° C. for 24 hours. The cells were treated with the samples (Examples 1-1 to 1-6 or Comparative Examples 3-1 and 3-2) at various concentrations and then cultured at 37° C. for 4 hours. WST-8 solution was added to the cultured cells, and absorbance was measured at 450 nm with a microplate reader (Perkin-Elmer, USA) 4 hours later.
# Cytotoxicity was analyzed using HeLa cells. Specifically, HeLa cells were subcultured in DMEM supplemented with 10% FBS (fetal bovine serum), dispensed into each well at 1×10^4 cells/well, and cultured at 37° C. for 24 hours. The cells were treated with the samples (Examples 3-1 to 3-6) at various concentrations and then cultured at 37° C. for 4 hours. WST-8 solution was added to the cultured cells, and absorbance was measured at 450 nm with a microplate reader (Perkin-Elmer, USA) 4 hours later.
# BSA = BSA (Bos taurus, UniProt P02769); assay: EMSA of non-fouling property for proteins (BSA); type: binding
# Chain of BSA (P02769 25-607): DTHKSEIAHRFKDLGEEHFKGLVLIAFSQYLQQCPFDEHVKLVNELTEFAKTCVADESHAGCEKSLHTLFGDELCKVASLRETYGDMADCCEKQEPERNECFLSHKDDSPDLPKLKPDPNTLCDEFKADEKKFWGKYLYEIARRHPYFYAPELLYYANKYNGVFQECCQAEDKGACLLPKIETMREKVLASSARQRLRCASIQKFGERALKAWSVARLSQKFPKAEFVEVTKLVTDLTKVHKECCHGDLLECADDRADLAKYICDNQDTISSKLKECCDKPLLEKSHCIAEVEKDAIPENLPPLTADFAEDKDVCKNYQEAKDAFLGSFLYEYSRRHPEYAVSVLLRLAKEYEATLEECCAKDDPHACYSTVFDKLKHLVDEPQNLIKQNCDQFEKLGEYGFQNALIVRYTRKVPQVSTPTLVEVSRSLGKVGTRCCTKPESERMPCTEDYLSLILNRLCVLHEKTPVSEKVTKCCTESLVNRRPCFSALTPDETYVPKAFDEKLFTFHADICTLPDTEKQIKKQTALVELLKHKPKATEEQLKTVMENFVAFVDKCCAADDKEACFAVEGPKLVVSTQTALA
# Source text: The mixing ratio was R/B ratio, wherein the R/B ratio was arginine/BSA ratio. […] For visualization, the bands were stained with Coomassie brilliant blue R-250.
# The mixing ratio was peptide/BSA ratio, wherein the peptide/BSA ratio was peptide/BSA (w/w). […] For visualization, the bands were stained with Coomassie brilliant blue R-250.
# [1] = DLS size, size distribution and zeta potential; type: physicochemical; details: for Diameter (nm) in DW / Diameter (nm) in PBS: DLS
# yeast rRNA = assay: EMSA of non-fouling property for rRNA; type: binding; details: 200 ng yeast rRNA; various peptide/RNA (w/w) ratios; room temperature 1 hour
# Method: It was confirmed through EMSA (electrophoretic mobility shift assay) that the dendrimer structure of the present disclosure has non-fouling property for various genetic materials present in the body when administered in vivo. 200 ng of yeast rRNA (ribosomal RNA) was prepared as a model genetic material and mixed with the Janus-type dendritic polyelectrolyte zwitterion of Example 5-4 (JDPZ ((+6)2(−6)2 conjugate_1)) at various concentration ratios. The mixing ratio was peptide/RNA ratio, wherein the peptide/RNA ratio was peptide/RNA (w/w). After reacting the mixture at room temperature for 1 hour, electrophoresis was performed on a 2% agarose gel at 90 V for 100 minutes. For visualization, the bands were stained with SYBR Gold nucleic acid gel stain (Invitrogen, USA).
# The Janus-type dendrimer structure of Comparative Example 1-2 ((+3)2(Ø3)2 conjugate) was used as a control group instead of the JDPZ of Example 5-4 ((+6)2(−6)2 conjugate_1).
# HCT116 cells = assay: Cytotoxicity, WST-8 assay in HCT116 cells; type: cell-based, human; details: 0, 1.25, 2.5, 5, 10 μM, 4 hours
# Method: The cytotoxicity of the G2 Janus-type dendritic polyelectrolyte zwitterions according to the present disclosure (JDPZ, (+M)2(−M)2 conjugate_1) was analyzed using HCT116 cells (human colon cancer cells). Specifically, HCT116 cells were subcultured in DMEM supplemented with 10% FBS (fetal bovine serum), dispensed into each well at 1×10^4 cells/well, and cultured at 37° C. for 24 hours. The cells were treated with the samples (Example 5-1 and Comparative Examples 1-1 to 1-3) at various concentrations (0, 1.25, 2.5, 5, 10 μM), respectively, and incubated at 37° C. for 4 hours. WST-8 solution was added to the cultured cells, and absorbance was measured at 450 nm with a microplate reader (Perkin-Elmer, USA) 4 hours later.
Molecule,cytotoxicity (HeLa cells),Net charge [1],Zeta potential (mV) [1],Diameter (nm) in DW [1] [nm],Diameter (nm) in PBS [1] [nm],other results
Comparative Example 3-1: peptide in which cationic and anionic amino acids are linked alternately (Ac-ERERERERERERERERERERERERERER),do not cause toxicity in the cells,,,,,
Ac-EEEEEEEEEEEERRRRRRRRRRRR-NH2 [Comparative Example 3-2],do not cause toxicity in the cells,,,,,
"linear peptide R12: linear peptide with 12 arginines, same number of cationic residues as Example 1-6 (RRRRRRRRRRRR; not fully specified (some residues))",,,,,,"binding to BSA (non-fouling property), EMSA (BSA; 0.5 μg BSA, various R/B (arginine/BSA) ratios, room temperature 12 hours): interacts with BSA and induces EMS"
CC(=O)NCCCCCCCCCCCC(=O)NCCCCC(NC(=O)CCCCCCCCCCCNC(C)=O)C(=O)NCCCCC(NC(=O)C(CCCCNC(=O)CCCCCCCCCCCNC(C)=O)NC(=O)CCCCCCCCCCCNC(C)=O)C(=O)NCCCCC(NC(=O)C(CCCCNC(=O)C(CCCCNC(=O)[C@H](CCC(=O)O)NC(=O)[C@H](CCC(=O)O)NC(=O)[C@H](CCC(=O)O)NC(=O)[C@H](CCC(=O)O)NC(=O)[C@H](CCC(=O)O)NC(=O)[C@H](CCC(=O)O)NC(C)=O)NC(=O)[C@H](CCCCC(=N)N)NC(=O)[C@H](CCCNC(=N)N)NC(=O)[C@H](CCCNC(=N)N)NC(=O)[C@H](CCCNC(=N)N)NC(=O)[C@H](CCCNC(=N)N)NC(=O)[C@H](CCCNC(=N)N)NC(C)=O)NC(=O)C(CCCCNC(=O)[C@H](CCCNC(=N)N)NC(=O)[C@H](CCCNC(=N)N)NC(=O)[C@H](CCCNC(=N)N)NC(=O)[C@H](CCCNC(=N)N)NC(=O)[C@H](CCCNC(=N)N)NC(=O)[C@H](CCCNC(=N)N)NC(C)=O)NC(=O)[C@H](CCC(=O)O)NC(=O)[C@H](CCC(=O)O)NC(=O)[C@H](CCC(=O)O)NC(=O)[C@H](CCC(=O)O)NC(=O)[C@H](CCC(=O)O)NC(=O)[C@H](CCC(=O)O)NC(C)=O)C(N)=O (some centres unmarked) [Example 5-4],,0,+35.2 mV,649.0,128.9,"interaction with rRNA (non-fouling property), EMSA (yeast rRNA): forms interaction only under high-concentration conditions in which rRNA is present in an amount exceeding 10 times; binding to BSA (non-fouling property), EMSA (BSA; 1 μg BSA, various peptide/BSA (w/w) ratios, room temperature 1 hour): hardly binds to BSA"
CC(=O)NCCCCCCCCCCCC(=O)NCCCCC(NC(=O)CCCCCCCCCCCNC(C)=O)C(=O)NCCCCC(NC(=O)C(CCCCNC(=O)CCCCCCCCCCCNC(C)=O)NC(=O)CCCCCCCCCCCNC(C)=O)C(=O)NCCCCC(NC(=O)C(CCCCNC(=O)C(CCCCNC(=O)[C@H](CCC(=O)O)NC(=O)[C@H](CCC(=O)O)NC(=O)C(CCC(=O)O)NC(C)=O)NC(=O)[C@H](CCCCC(=N)N)NC(=O)[C@H](CCCNC(=N)N)NC(=O)[C@H](CCCNC(=N)N)NC(C)=O)NC(=O)C(CCCCNC(=O)[C@H](CCCNC(=N)N)NC(=O)[C@H](CCCNC(=N)N)NC(=O)[C@H](CCCNC(=N)N)NC(C)=O)NC(=O)[C@H](CCC(=O)O)NC(=O)[C@H](CCC(=O)O)NC(=O)[C@H](CCC(=O)O)NC(C)=O)C(N)=O (some centres unmarked) [Example 5-1],,0,+42.3 mV,109.8,75.4,cytotoxicity (HCT116 cells): does not exhibit cytotoxicity
